The values below come from patent publication US20210032330A1 (PHANES THERAPEUTICS, published 2021).

To fix the notation:
B1: H1L1 (antibody, V domains shown)
VH: EVQLVESGGGLVQPGGSLRLSCAASGYTFTSSDINWVRQAPGKGLVWIGWIFPGDGSTKYTPSLKDQATLSTDKAKNTAYLQMNSLRAEDTAVYFCARGLDYWGQGTLVTVSS
VL: DIQMTQSPSSLSASVGDRVTITCKASQDINSYLGWFQQKPGKAPKTLIYRADRLVDGVPSRFSGSGSGQDYTFTISSLQPEDIATYYCLQYDEFPLTFGQGTKLEIK
notes: also called humanized version of anti-TIM-3 mAb 16-K5-A, VH H1 with VL L1
B2: H2L1 (antibody, V domains shown)
VH: EVQLVESGGGLVQPGGSLRLSCAASGYTFTSSDINWVRQAPGKGLVWIGWIFPGDGSTKYTPSLKDQATLSTDLAKNTAYLQMNSLRAEDTAVYFCARGLDYWGQGTLVTVSS
VL: DIQMTQSPSSLSASVGDRVTITCKASQDINSYLGWFQQKPGKAPKTLIYRADRLVDGVPSRFSGSGSGQDYTFTISSLQPEDIATYYCLQYDEFPLTFGQGTKLEIK
notes: also called humanized version of anti-TIM-3 mAb 16-K5-A, VH H2 with VL L1
B3: Chimeric (antibody, V domains shown)
VH: QVQLQQSGAELVKPGASVKLSCKASGYTFTSSDINWVRQRPEQGLEWIGWIFPGDGSTKYNEKFKGKATLTTDKSSSTAYMQLSRLTSEDSAVYFCARGLDYWGQGTTLTVSS
VL: DIKMTQSPSSMYASLGERVTITCKASQDINSYLGWFQQKPGKSPKTLIYRADRLVDGVPSRFSGSGSGQDYSLTISSLEYEDMGIYYCLQYDEFPLTFGAGTKLELK
notes: detected with anti-human IgG-HRP; also called chimeric version of anti-TIM-3 mAb 16-K5-A
B4: 7-N2-A (antibody, V domains shown)
VH: QVQLKESGPGLVAPSQSLSITCTVSGFSLTGFGVNWVRQPPGKGLEWLGMIWGDGSTDYNSTLKSRLSISKDNSKSQVFLKMNSLQTDDTARYYCARDYYGYVGNAMDYWGQGTSVTVSS
VL: DIVMSQSPSSLAVSAGEKVTMSCKSSQSLLNSRTRKNYLAWYQQKPGQSPKLLIYWASTRESGVPDRFTGSGSGTDFTLTISSVQAEDLAVYYCKQSYNHMYTFGGGTKLEIK
notes: also called anti-TIM-3 monoclonal antibody 7-N2-A
B5: 6-H6-A (antibody, V domains shown)
VH: EVQLQQFGAELVKPGASVKISCKASGYTFTDYNMDWVKQSHGKSLEWIGDIDPNYDSTTYNQKFKGKATLTVDKSSSTAYMELRSLTSEDTAVYYCARGGHYRYDGYYAMDYWGQGTSVTVSS
VL: DIVLTQSPASSAVSLGQRATFSCRASQSVSTSSYSFMHWYQQKPGQPPKLLIKYASNLESGVPARFSGSGSGTDFTLNIHPVEEEDTATYYCQHSWEIPPTFGGGTNLEIK
notes: also called anti-TIM-3 monoclonal antibody 6-H6-A
B6: anti-TIM-3 monoclonal antibody 6-I13-A (antibody, V domains shown)
VH: EVQLQQSGPELEKPGASVKISCKASGYSFTGYNMNWVKQSNGKSLEWIGNIDPYYGVTSYNQKFKGKATLTVDKSSSTAYMQLKSLTSEDSAVYYCASYSLTYDGYYPFAYWGQGTLVTVSA
VL: DIVLTQSPASLAVSLGQRATISCRASKSVSTSGYSYMHWYQQKPGQPPKLLIYLASNLESGVPARFSGSGSGTDFTLNIHPVEEEDAATYYCQHSRELPYTFGGGTKLEIK
notes: Mouse hybridoma mAb; captured on anti-mouse Fc biosensors
B7: H5L5 (antibody, V domains shown)
VH: QVQLQESGPGLVKPSETLSLTCTASGYTFTSSDINWVRQPPGKGLEWIGWIFPGDGSTKYNPSLKSRATLSTDKSKNQASLNLDSVSAADTAIYFCARGLDYWGKGSTVTVSS
VL: DIQMTQSPSSLSASVGDRVTITCKASQDINSYLGWFQQKPGKAPKTLIYRADRLVDGVPSRFSGSGSGQDYTFTISSLQPEDIATYYCLQYDEFPLTFGPGTKVDIK
notes: also called humanized version of anti-TIM-3 mAb 16-K5-A, VH H5 with VL L5
B8: H7L5 (antibody, V domains shown)
VH: QVQLQESGPGLVKPSETLSLTCKASGYTFTSSDINWVRQPPGKGLEWIGWIFPGDGSTKYNPSLKSRATLSTDKSKNQASLNLSSVTAADTAVYFCARGLDYWGKGTTVTVSS
VL: DIQMTQSPSSLSASVGDRVTITCKASQDINSYLGWFQQKPGKAPKTLIYRADRLVDGVPSRFSGSGSGQDYTFTISSLQPEDIATYYCLQYDEFPLTFGPGTKVDIK
notes: also called humanized version of anti-TIM-3 mAb 16-K5-A, VH H7 with VL L5
B9: anti-TIM-3 monoclonal antibody 10-M21-A (antibody, V domains shown)
VH: DVQLQESGPTLVKPSQTLSLTCSVTGDSITSGYWNWIRKFPGNKLEYMGYISYSGSTYYNPSLKSRISIIRDTSKNQYYLQLNSVTTEDTATYYCVSGNHFDYWGQGTTLTVSS
VL: DIQMTQSPSSLSASLGGKVTITCKASQDINRYIAWYQHKPGKGPRLLIHYTSTLQPGIPSRFSGSGSGRDYSFSISNLEPEDIATYYCLQYDNLLFTFGSGTKLEIK
notes: as for B6
B10: anti-TIM-3 monoclonal antibody 1-A19-A (antibody, V domains shown)
VH: EVQLQQFGAELVKPGASVKISCKASGYTFTDYNMDWVKQSHGKSLEWIGDIDPNYDITTYNQKFKGKATLTVDKSSSTAYMELRSLTSEDTAVYYCARGGHYRYDGYYALDYWGQGTSVTVSS
VL: DIVLTQSPASLAVSLGQRATISCKASQSVDYDGDSYMNWYQQKPGQPPKLLIYAASNLESGIPARFSGSGSGTDFTLNIHPVEEEDAATYYCQQSNEDPFTFGSGTKLEIK
notes: as for B6
B11: anti-TIM-3 monoclonal antibody 18-N1-A (antibody, V domains shown)
VH: QVQLQQPGAELVRPGVSVKLSCKASGYTFTSYWMHWIKQRPEQGLERIGEINPSNGGTNYNEKFKNKATLTVDKSSSTAYMQLSSLTSEDSAVYYCARSYYTYDAIDYWGQGTSVTVSS
VL: DIVMSQSPSSLAVSAGEKVTMSCKSSQSLLNSRTRKNYLAWYQQKPGQSPKLLIYWASTRESGVPDRFTGSGSGTDFTLTISSVQAEDLAVYYCKQSYNLYTFGGGTKLEIK
notes: as for B6
B12: anti-TIM-3 monoclonal antibody 20-L10-A (antibody, V domains shown)
VH: QIQLVQSGPELKKPGETVKISCKASGYTFTNYGMNWVKQAPGKVLKWMVWINTYTGEPTYADDFKGRFAFSLETSASTAYLQINNLKNEDTATYFCARDAMDYWGQGTSVTVSS
VL: DVVMTQTPLSLPVSLGDQASISCRSSQSLVHSNGNTYLHWYLQKPGQSPKLLIYKVSNRFSGVPDRFSGSGSGTDFTLKISRVEAEDLGVYFCSQNTHVPWTFGGGTKLEIK
notes: as for B6
B13: anti-TIM-3 monoclonal antibody 15-L23-A (antibody, V domains shown)
VH: QIQLVQSGPELKKPGETVKISCRASGYTFTNYGMNWVKQAPGKGLKWMVWINTYTGEPTFADDFKGRFAFSLETSASTAYLQIINLKNEDTATYFCARDTMDYWGQGTSVTVSS
VL: DIVMTQTPLSLPVSLGDQASISCRSSQSLVHSNGNTYLHWYLQKPGQSPKLLIYKVSNRFSGVPDRFSGSGSGTDFTLKISRVEAEDLGVYFCSQNTHVPWTFGGGTKLEIK
notes: as for B6
B14: anti-TIM-3 monoclonal antibody 8-F3-A (antibody, V domains shown)
VH: QIQLVQSGPELKKPGETVKISCKASGYTFTNYGMNWVKQAPGKGLKWMAWINTYTGEPTYADDFKGRFAFSLETSASTAYLQINNLKNEDTATYFCARDLEDYWGQGTTLTVSS
VL: DVVMTQTPLSLPVSLGDQASISCRSSQSLVHSNGNTYLHWYLQKPGQSPKLLIYKVSNRFSGVPDRFSGSGSGTDFTLKISRVEAEDLGVYFCSQTTHVPWTFGGGTKLEIK
notes: as for B6
B15: anti-TIM-3 monoclonal antibody 10-O15-A (antibody, V domains shown)
VH: QVQLQQSGADLVRPGASVKLSCKALGYTFTDYEMHWVKQTPVHGLEWIGAIHPGSGGTAYNQKFKGKATLTADKSSSTAYMELSSLTSEDSAVYFCSRSYYRYTGYFDVWGAGTTVTVSS
VL: DIVLTQSPASLAVSLGQRATISCRASKSVSASGYSYMHWYQQKPGQPPKLLIYLASNLESGVPARFSGSGSGTDFTLNVHPVEEEDAATYYCQHSRELPFTFGSGTKLEIK
notes: as for B6
B16: anti-TIM-3 monoclonal antibody 16-J5-A (antibody, V domains shown)
VH: DVQLVESGGGLVQPGGSRKLSCAASGFTFSSFGMNWVRQAPEKGLEWVAYISSGSSTIYYADTVKGRFTISRDNPKNTLFLQMTSLRSEDTAMYYCARWGRWADFDYWGQGTTLTVSS
VL: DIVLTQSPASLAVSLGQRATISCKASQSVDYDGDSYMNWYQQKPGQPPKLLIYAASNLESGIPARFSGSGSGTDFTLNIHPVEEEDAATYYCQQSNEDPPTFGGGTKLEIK
notes: as for B6
B17: anti-TIM-3 monoclonal antibody 16-L3-A (antibody, V domains shown)
VH: QVQLQQSGPELVKPGASVKMSCKASGYTFTSYYIHWVKQRPGQGLEWIGWIYPGDGSTKYNEKFKGKTTLTADKSSSTAYMLLSSLTSEDSAIYFCATDRYDVAYWGQGTLVTVSA
VL: EIVLTQSPALMAASPGEKVTITCSVSSSISSSNLHWYQQKSETSPKPWIYGTSNLASGVPVRFSGSGSGTSYSLTISSMEAEDAATYYCQQWSSYPLTFGAGTKLELK
notes: as for B6
B18: anti-TIM-3 monoclonal antibody 16-K5-A (antibody, V domains shown)
VH: QVQLQQSGAELVKPGASVKLSCKASGYTFTSSDINWVRQRPEQGLEWIGWIFPGDGSTKYNEKFKGKATLTTDKSSSTAYMQLSRLTSEDSAVYFCARGLDYWGQGTTLTVSS
VL: DIKMTQSPSSMYASLGERVTITCKASQDINSYLGWFQQKPGKSPKTLIYRADRLVDGVPSRFSGSGSGQDYSLTISSLEYEDMGIYYCLQYDEFPLTFGAGTKLELK
notes: Mouse hybridoma mAb (parent of the humanized H1L1, H2L1, H5L5, H7L5); captured on anti-mouse Fc biosensors; also called mouse anti-TIM-3 mAb 16-K5-A
B19: 12-M11-A (antibody, V domains shown)
VH: QVQLQQSGAELAKPGASVKMSCKASGYFTSYWMHWVKQRPGQGLEWIGYINPITGYTEYNQKFKDKATLTADKSSSTAYMQLSRLTSEDSAVYYCARGVENFDYLYAMDYWGQGASVTVSS
VL: QIVLTQSPAIMSASPGEKVTMTCSASSSISYMHWYQQKPGTSPKRWIYDTSKLASGVPTRFNGSGSGTSYSLTISSMEAEDAATYYCHQRSSYRTFGGGTKLEIK
notes: also called anti-TIM-3 monoclonal antibody 12-M11-A

For the first assay, the target named is T1, human T-cell immunoglobulin and mucin-domain containing molecule 3 (TIM-3) (human, UniProt Q8TDQ0 22-200, limits assumed).
T1 construct: also called Human TIM-3
As to the kind of experiment: ELISA, recombinant human TIM-3(ECD)-6His coated on the plate, anti-human IgG-HRP detection, absorbance at 450 nm. Background: In an ELISA, binding on a coated surface is turned into a signal by an enzyme label.
Method: (§1) Recombinant human TIM-3(ECD)-6His in carbonate coating buffer was coated on an ELISA plate at 4° C. overnight.
What is called EC50 (read off the curve) is the concentration that produces a half-maximal response. For the molecule B1, the “EC50 (read off the curve)” value is ~0.07 nM.

As to B2, the “EC50 (read off the curve)” value was ~0.09 nM. With B3, the “EC50 (read off the curve)” value was ~0.09 nM.

Another assay has as its target T1, human T-cell immunoglobulin and …. Put plainly: competition ELISA: pre-equilibrated mixture of mAb and human TIM3(ECD)-huFc on plate-coated phosphatidylserine (PtdSer, a lipid), anti-huFc-HRP detection, % inhibition.
Method: (§2) ELISA plates were coated with PtdSer or PtdChol, washed and incubated with a pre-equilibrated mixture of purified antibodies at various concentrations and TIM3(ECD)-huFc. The plates were washed and then the signal was detected by incubation with HRP-coupled anti-huFc secondary antibody and then a HRP substrate. TIM-3 binding to PtdSer was used as 100% signal and TIM-3 binding to PtdChol as zero (background) to calculate percent of inhibition by a given mAb.
(§3) To determine the effect of anti-TIM-3 antibodies on the interaction of TIM-3 with phosphatidylserine (PtdSer), 384-well ELISA plates were coated with PtdSer or phosphatidylcholine (PtdChol) at room temperature. The wells were washed using PBS supplemented with 0.1% Tween-20 and then blocked using PBS supplemented with 2% bovine serum albumin (BSA). […] The plates were washed and then incubated with HRP-coupled anti-huFc secondary antibody. Plates were washed, incubated with an HRP substrate, and read using a POLARstar Omega Microplate (BMG LABTECH). The assay was performed in triplicate.
Turning to B4, the “IC50 (read off the curve)” value is ~7 nM. Turning to B5, the binding result is recorded as “binds”. For B6, the “IC50 (read off the curve)” value is ~4 nM.

For the next assay the target is unchanged. As to the kind of experiment: ELISA, recombinant human TIM-3(ECD)-6His coated on the plate, anti-human IgG-HRP detection, absorbance at 450 nm. This is another data set of the same source.
Method: as §1
In the case of B7, the “EC50 (read off the curve)” value is ~0.2 nM.

For B8, the “EC50 (read off the curve)” value was ~0.1 nM. Turning to B3, the “EC50 (read off the curve)” value is ~0.2 nM.

For the next assay the target is unchanged. Put plainly: BLI (OCTET Red96), mAb on anti-mouse Fc biosensor, antigen in solution, 1:1 model.
Method: Binding experiments were performed on OCTET Red96 at 25° C. Antibodies were loaded onto Anti-Mouse Fc (AMC) biosensors. Loaded sensors were dipped into serial dilutions of antigen. Kinetic constants were calculated using a monovalent (1:1) model. The assay buffer was PBS supplemented with 0.1% BSA, 500 mM NaCl, 0.02% Tween-20, pH 7.2.
A word on the Kd: it is the free concentration of one partner at which half of the binding sites on the other are occupied at equilibrium, for simple one-to-one binding. On to B9, for which the Kd stood at 16 nM.

As for B10, the Kd was found to be 2.2 nM. Regarding B11, the Kd worked out at 1.1 nM.

The molecule B12 returned a Kd of 10 nM. In turn, B13 had a Kd of 13 nM. For B14, the affinity, expressed as Kd, was 1.6 nM. With B6, the Kd was determined as 9.9 nM. Consider B15, for which the Kd turned out to be 3.1 nM. On the same count and under the same terms, the result for B16 reads 2.7 nM. For B17, binding was characterised by a dissociation constant (Kd) of 14 nM. Same read-out and setting: the result for B18 reads 7.9 nM.

Another assay has the same target. As to the kind of experiment: competition ELISA: pre-equilibrated mixture of mAb and human TIM3(ECD)-huFc on plate-coated phosphatidylserine (PtdSer, a lipid), anti-huFc-HRP detection, % inhibition. This is another data set of the same source.
Method: as §2, §3
Turning to B19, the “IC50 (read off the curve)” value is ~7 nM.
